For one substance, Kd results are on record in paper PMC9712074.

This test deals with SA58 (BD55-5840), human IgG1 (human). Description: SPR.

The substance “SARS-CoV-2 (BA.4/BA.5) Spike RBD Protein (His Tag) (from UniProt P0DTC2) (domain or fragment)” displayed a Kd of 0.96 nM.
